Molecular target: T1, PEA-15 S104D/S116D double mutant (PEA-15DD) (UniProt Q15121 1-130, S104D | S116D)
T1 construct: PEA-15 (phosphoprotein enriched in astrocytes, 15 kDa), full length, with the phosphomimetic mutations S104D and S116D; Made by site-directed mutagenesis of the PEA-15 plasmid (pET-28b); expressed and purified as the wild type
Assay: NMR titration; data not shown: spectra of uniformly labeled PEA-15DD with unlabeled FADD at molar ratios 1:0.5, 1:1 and 1:2; 20 mM sodium phosphate pH 7.0, 150 mM NaCl, 1 mM DTT
Conditions: both partners purified

T1 sequence (Q15121 whole entry S104D/S116D): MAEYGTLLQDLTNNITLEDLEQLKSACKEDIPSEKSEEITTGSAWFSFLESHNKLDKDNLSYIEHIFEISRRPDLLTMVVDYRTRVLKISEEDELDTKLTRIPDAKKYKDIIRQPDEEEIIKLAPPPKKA

B1: Fas-associated death domain (FADD) protein, full length (natural protein, UniProt Q13158 1-208, looked up)
chain: MDPFLVLLHSVSSSLSSSELTELKFLCLGRVGKRKLERVQSGLDLFSMLLEQNDLEPGHTELLRELLASLRRHDLLRRVDDFEAGAAAGAAPGEEDLCAAFNVICDNVGKDWRRLARQLKVSDTKIDSIEDRYPRNLTERVRESLRIWKNTEKENATVAHLVGALRSCQMNLVADLVQEVQQARDLQNRSGAMSPMSWNSDASTSEAS
notes: FADD (Fas-associated death domain protein), full length; Cloned into pET-28b between NdeI and BamHI
- stoichiometry N: 1
